In the DeepSol protein solubility set:

Assay: soluble on expression in E. coli; label from the status in PepcDB or PDB records

| Sequence | soluble on expression in E. coli |
| --- | --- |
| GSHMSGKARLHYPVTRQGEQVDHYFGQAVADPYRWLEDDRSPETEAWVKAQNAVTQDYLAQIPYRAAIKEKLAASWNYAKEGAPFREGRYHYFFKNDGLQNQNVLWRQQEGKPAEVFLDPNTLSPDGTTALDQLSFSRDGRILAYSLSLAGSDWREIHLMDVESKQPLETPLKDVKFSGISWLGNEGFFYSSYDKPDGSELSARTDQHKVYFHRLGTAQEDDRLVFGAIPAQHHRYVGATVTEDDRFLLISAANSTSGNRLYVKDLSQENAPLLTVQGDLDADVSLVDNKGSTLYLLTNRDAPNRRLVTVDAANPGPAHWRDLIPERQQVLTVHSGSGYLFAEYMVDATARVEQFDYEGKRVREVALPGLGSVSGFNGKHDDPALYFGFENYAQPPTLYRFEPKSGAISLYRASAAPFKPEDYVSEQRFYQSKDGTRVPLIISYRKGLKLDGSNPTILYGYGGFDVSLTPSFSVSVANWLDLGGVYAVANLRGGGEYGQAWHLAGTQQNKQNVFDDFIAAAEYLKAEGYTRTDRLAIRGGSNGGLLVGAVMTQRPDLMRVALPAVGVLDMLRYHTFTAGTGWAYDYGTSADSEAMFDYLKGYSPLHNVRPGVSYPSTMVTTADHNDRVVPAHSFKFAATLQADNAGPHPQLIRIETNAGHGAGTPVAKLIEQSADIYAFTLYEMGYRELPRQP | soluble |
| GPGSMASKKGGKKANGEDLEAAILRWFECEGEPATVQSLTDALGSKFGKQLVQNTLEQCLKEQKLLAKDIKKARFYFLASPAPGSNDEGSDVGSHKIDIVKQLRQLRNGVSMLSSELSVLLQAQTSSKRATTIASLVSECAALRSRLQALHVIAGKESSCVSDDVSLLIHRYKRARELWRDRKRITVCVIDAVLGDSCGPQELEDIFGLSTDEQMNLCLSGTALTLPATVSS | not soluble |
| MWRRSLTESHSNELRLELTSRIVSAYLSRNVIAPSELPHLIQQTYGSLGKTSEPTKTPATVEEQRPAVPIKKSVTDDFIVCLEDGKSFKSLKRHLMAKYALTPEQYREKWKLPADYPMVAPNYARKRSELARATGLGKKSAANLSPSLQAVRSA | not soluble |
| MVEYVNQAHEDITGIARDKSIGTNLRDLTFFRQHNALAEQTLAKIFRGDQAKGEVQFSRTDGSRYWLKYIVSQFITDRGNHYALVSGEENSDEHNYKAELEHHHHHH | not soluble |
| MGSSHHHHHHGGTGENLYFQGGSGMKSVFITGGNRGIGLETARQMGKLGYYVIISCRDEEKAKAAIEKVSAEGVKADYVIMDVVDESSVAKAAAEVSKKVNGVLDALINNAGKAAPSGDMSRVNLDEMRRCYEVNVIGTVCVTNHFLEMVKKSSAGRIVNVGSIKGSCQLEVTALSHTPYNCSKAALNMYTVNLASSLKDTNVKVNCAHPGWVKTDMGGPQAPLEVTEGAETSVYLATLPADGPTGGFFHKRDRLPW | soluble |
| MRCPYCQYEDTQVKDSRPSEEGTVIRRRRICSVCGGRFTTFERVQLRELLVLKKSGRYEPFDRDKLMRSVEIAVRKRGIDPDYIERVISGIVRQLESLGEPEISSEKIGLLVMKALKSIDDIAYIRFASVYRDFRNASDFHDVIEELSKGITDTESCFDE | not soluble |
| MGSDKIHHHHHHMTVADLVAGLRESRGFRHKTDIVDVVGSLAKRLPRGKRDLAQAVALGDDCAALADGDGYLLFAIEGMVSDFVSAMPWFAGYSSVMVNVSDIYAMGGRPLAVVDALWSQGIGAAEEVLAGMAAASVAYGVPIVGGHTNTRSEAAQLAVSIIGRARALLSSFNAKPGDSLMMAVDLRGRFEEPYPFWNASVDAPPERLRADLELLPQLAENGLCDAAKDISMAGTLGTALMLLECSQVGARIDLACIPKPEGVPLERWVSAFPSFGYLLSVRPEHVETVRAKFSARSLACSVIGSVDATSQVVLHRQDDAATLWDFQREPFIIGKDEVK | not soluble |
| GPGSMEFIMNSVYAIDPIYLLMSAVAQQMLAMAWFDCIVGQIDRYYVAADKGVRRVEHAITRYPGIMVSATTFACSLLRSLVVLTVVSMCNCSTLYQYQSAAMVAVMIGMMRVHRTFSCHRPIQIFVTETGYEMAAAMTAAVVCYYMKKYNF | soluble |
| GPGSMTEYLKDIGRTKPGDPMPPINLGPYDNPLLWNMLDPFGADRGHQRRPMSVSRDFMELHNVPIIFRDQCVHRWVPFHRCLKNLKPVTWGTANCHEFEEAWMICRAYETYRNQLLKTKFMELTKDYTAEDKKFFPSLLHLSVPTYMNSFYWTMAASQRLSGWDERDPANPMTWREPNRALMRAEFSPTNWEQGNLTNATGHKLITDDLVFDMVPGFPLPEDKRPETLY | not soluble |
| MGSDKIHHHHHHMLLKSPDKSPEKILKLFDEVYSKARIFYLLRTAIDLNLFEYLSSFKTAKELAEILDADLILMEYMLKILNELDLIESKVVSERIYYKNAEITNIYLKKDSNYSIINPIYSYFENIKNWENLADILKNKSNCSNMDVDNFFPKVVRRMADECKCWELQKVLNYMAKYEEFKNAKKLLDLAGGHGLYAIGFSMLNRNLKCYVFDLPNVIEETKKFIKKYNAKNVFTITGDFYKDDIGKGYDIIFCSYNPGGKNPKIAEKVYNALNEGGLFINKQFFPDKEEGIEDYINNMEWNFSKPEGLKKGKIRYTFEGDLNLNDYLKYLEDLGFKILEVVDMSELLGLDENSSSFRKSANPSDSLRFKDNSPAKMIVAKKL | not soluble |
| MGSDKIHHHHHHMASLPRLYYVTSGLDEANAFATWRAVISPLFEPRPCGPSRKTPTGSAYGIIIGDLVVAKVAFNAQDFVRDAQRIAVTPDHLLLHLYVSGGFNGEVTRQQTVIGPGKVALIDLACPLSTRAFASNTMCLIVPRKLLAGLPLHALKPKLDPLRNDLLAAYIRSLQERSAQLTEADVATTVAETADFLRRLLAPSAEADLAPERSADETILALTEALIRDNLALPELSPDWLAQQLDVSRASLYRLFAERGGVMRYVQERRLLAVQAALADPLETRRLSRLASDLGFKSEAHFSRSFRARFGITASAYRKAQLDASAAIQLTSPAVVQQWWTAVARDPLRHAG | not soluble |
| MSLGQFWHVTDLHLDPTYHITDDHTKVCASSKGANASNPGPFGDVLCDSPYQLILSAFDFIKNSGQEASFMIWTGDSPPHVPVPELSTDTVINVITNMTTTIQSLFPNLQVFPALGNHDYWPQDQLPVVTSKVYNAVANLWKPWLDEEAISTLRKGGFYSQKVTTNPNLRIISLNTNLYYGPNIMTLNKTDPANQFEWLESTLNNSQQNKEKVYIIAHVPVGYLPSSQNITAMREYYNEKLIDIFQKYSDVIAGQFYGHTHRDSIMVLSDKKGSPVNSLFVAPAVTPVKSVLEKQTNNPGIRLFQYDPRDYKLLDMLQYYLNLTEANLKGESIWKLEYILTQTYDIEDLQPESLYGLAKQFTILDSKQFIKYYNYFFVSYDSSVTCDKTCKAFQICAIMNLDNISYADCLKQLYIKHNYEGHHHHHH | not soluble |
| MSLRIGIVGVGFSEFRIHEEPFYNVAFLAAKRALEDAGIERGEVDSFILGGYDNLGVGRTISNMYTAPAAGAYLRHEIRVSDDALFALPLAFMKVKSGSEITMLLAFGHSSETPIELVELQSLDPFFHRPFNLSLPVFFAMQSYAYRERYGVKEEKIAEVVVRMREKGAKNPRAYIREKVSVEDVLSSEVVSSPLRRLEMAEWCDGCVAFILAEETVARRLSDSPVWVSGLGWSAENYYFDRSLHDLPFVAKSAEMAFKMSGKERKDVEALEISDLTADYYCMILEALGFAETGRGWEFNGDVNFSGGALCTNAYGSTGAFLLASIVERIRKGEIECGMAQSMSGYAQKSCVAILEGEGHHHHHH | soluble |
| MGSDKIHHHHHHMASDIHTLSDSLLWKRFLEGDSSAYSQIYNQTVQELFRYGLLYTSDRELVKDCIHDVFVKIYTNRAKLTPTDNIIAYLMVALKNTLFNALKKTSDSFSLDEADEKEDQSEEHFSTPETIYINKEQEKNTHMKVHAMMSSLTTRQREIVYYRYIKDMSIDEISKITDMNYQSVSNSIQRALGRVRNLFKRE | not soluble |
| MNIIKANVAAPDARVAITIARFNQFINDSLLDGAVDALTRIGQVKDDNITVVWVPGAYELPLATEALAKSGKYDAVVALGTVIRGGTAHFEYVAGGASNGLASVAQDSGVPVAFGVLTTESIEQAIERAGTKAGNKGAEAALTALEMINVLKAIKA | not soluble |
| GPGSMTTSGALFPSLVPGSRGASNKYLVEFRAGKMSLKGTTVTPDKRKGLVYIQQTDDSLIHFCWKDRTSGNVEDDLIIFPDDCEFKRVPQCPSGRVYVLKFKAGSKRLFFWMQEPKTDQDEEHCRKVNEYLNNPPMPGALGASGSSGHELSALGGEGGLQSLLGNMSHSQLMQLIGPAGLGGLGGLGALTGPGLASLLGSSGPPGSSSSSSSRSQSAAVTPSSTTSSTRATPAPSAPAAASATSPSPAPSSGNGASTAASPTQPIQLSDLQSILATMNVPAGPAGGQQVDLASVLTPEIMAPILANADVQERLLPYLPSGESLPQTADEIQNTLTSPQFQQALGMFSAALASGQLGPLMCQFGLPAEAVEAANKGDVEAFAKAMQNNAKPEQKEGDTKDKKDEEEDMSLD | soluble |
| MGSDKIHHHHHHMIEYRIEEAVAKYREFYEFKPVRESAGIEDVKSAIEHTNLKPFATPDDIKKLCLEARENRFHGVCVNPCYVKLAREELEGTDVKVVTVVGFPLGANETRTKAHEAIFAVESGADEIDMVINVGMLKAKEWEYVYEDIRSVVESVKGKVVKVIIETCYLDTEEKIAACVISKLAGAHFVKTSTGFGTGGATAEDVHLMKWIVGDEMGVKASGGIRTFEDAVKMIMYGADRIGTSSGVKIVQGGEERYGG | soluble |
| MSFFNPPANSNHGYNDDVNTGYNARMHSKLAEREGFHLGNGSDEPRTLYVGNLDSTVTEDFIATLFNQIGSVTKTKVIFDGSNDPYAFVEFSDHGQASQALQTMNKRLLLDREMKVNWAVEPGQQQSKIDTTRHFHVFVGDLSSEVDNQKLREAFQPFGDVSDAKVIRDTNTTKSKGYGFVSYPKREEAERAIEQMNGQWLGRRTIRTNWATRKPGDQEKPSHYNEKSYDEIYNQTSGDNTSVYVGNIASLTEDEIRQGFASFGRITEVRIFKMQGYAFVKFDNKDAAAKAIVQMNNQDVGGQLVRCSWGKTGDTGKTPGGSYGYGYGNSSSGGNSQPYSGYGGGGAYGGGQGGGGHGGPGQQQSNANSQYWQYYAQYYNNPQLMQQWSNYWQQQGGAPQQQNSGGHQ | not soluble |
| MDIVLVGCKGFGKEHLRIYSKLGYDVSIVERDSNEAKRCSELFRVYKVYDNYEDALRSGSNIVDLVVPDGLHYEMGSLALKSKKHLLVEKPITPDIDSGISLIQQAEESKLKLMVAEQFYFDPSVNEAIRRINNGEIGKPHTVIVRHQSFRELKGWRNEKSMMGRGILIDEGTHYIDTLLNFGGRYRSLRSFVHRTWDFLGEDTAEAVFNFENGMHGLFFYSWNYPEYPLLPEFEIIGDAGSIYEDIGTKPTEPWDQRKRKTAYGDIIVNGKHIPVEPYDVIEREISGFLNAVEKDEPVPMPPDLALRDIITIDRIYKASSD | not soluble |
| MGHHHHHHSHMVTPVTWMDNPIEVYVNDSVWVPGPTDDHCPAKPEEEGMMINISIGYHYPPICLGRAPGCLMPAVQNWLVEVPTVSPISRFTYHMVSGMSLRPRVNYLQDFSYQRSLKFRPKGKPCPKEIPKGSKNTEVLVWEECVANSAVILQNSEFGTIID | not soluble |
| MPVVKVRENEPFDVALRRFKRSCEKAGILSEVRRREHYEKPTTVRKRAKAAAQKRHAKKLSRENARRVRLYLEHHHHHH | not soluble |
